Key:
[1] = biological target: T1, recombinant human PRX1 (Sigma-Aldrich) (human) (UniProt Q06830)
T1 sequence: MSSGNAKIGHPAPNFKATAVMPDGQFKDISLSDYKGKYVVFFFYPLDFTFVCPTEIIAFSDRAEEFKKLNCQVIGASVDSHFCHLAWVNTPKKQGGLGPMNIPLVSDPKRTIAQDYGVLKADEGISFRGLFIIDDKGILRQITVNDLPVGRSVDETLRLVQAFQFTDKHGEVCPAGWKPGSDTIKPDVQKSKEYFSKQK

[2] = biological target: T1, recombinant human PRX1 (Sigma-Aldrich) (human); remark: listed apart in the source

decrease of PRX1 enzymatic activity (NADPH consumption rate) by Mst1 in the presence of fortilin (ΔL7R) (PRX1 alone: 75.3% decrease) [1]: 77.9 % decrease | PRX1 peroxidase activity in vitro (NADPH consumption rate, reaction mix normalized to 1.00; PRX1 alone 4.38) with fortilin (ΔL7R) added [2]: 5.9 A.U.
B1: recombinant fortilin_(ΔL7R) tagged with Strep-tag (natural protein)
chain: MIIYRDRISHDEMFSDIYKIREIADGLCLEVEGKMVSRTEGNIDDSLIGGNASAEGPEGEGTESTVITGVDIVMNHHLQETSFTKEAYKKYIKDYMKSIKGKLEEQRPERVKPFMTGAAEQIKHILANFKNYQFFIGENMNPDGMVALLDYREDGVTPYMIFFKDGLEMEKC

Reference: article PMC4698670
